# Numbered stars: 1 amine (or outer) side, 2 acyl side, 3 side chain; on linkers, the order of the positions; unused ones are H or OH. Square brackets hold non-standard residues; d marks the D form. Side chains are listed from the residue outwards. Ends that are not written are not given here. * marks the point of attachment. C18 diacid = O=C(O)CCCCCCCCCCCCCCCCC(=O)*; γGlu = O=C(O)[C@H](CCC(=O)[*:2])N[*:1]; AEEA = NCCOCCOCC(=O)O; Aib = CC(C)(N)C(=O)O
# What was measured:
# [1] = target: human GLP-1 receptor (human, UniProt P43220 24-463); assay: cell-based or functional assay
# [2] = target: human glucagon receptor (human, UniProt P47871 26-477); assay: cell-based or functional assay
# Sequence of human glucagon receptor (P47871 26-477): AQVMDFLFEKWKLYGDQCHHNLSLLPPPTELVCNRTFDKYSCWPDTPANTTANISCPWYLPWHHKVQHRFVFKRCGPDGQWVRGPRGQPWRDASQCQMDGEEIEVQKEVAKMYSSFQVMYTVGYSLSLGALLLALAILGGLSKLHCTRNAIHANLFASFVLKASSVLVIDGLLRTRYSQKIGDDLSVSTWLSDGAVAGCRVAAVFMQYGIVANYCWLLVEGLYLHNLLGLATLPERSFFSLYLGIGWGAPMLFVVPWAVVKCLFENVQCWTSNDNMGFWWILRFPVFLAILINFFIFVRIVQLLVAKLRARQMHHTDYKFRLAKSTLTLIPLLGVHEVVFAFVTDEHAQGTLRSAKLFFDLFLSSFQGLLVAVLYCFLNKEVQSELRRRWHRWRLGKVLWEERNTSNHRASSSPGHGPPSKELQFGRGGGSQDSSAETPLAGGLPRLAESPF
Binder,"EC50 GLP-1R, CRE luciferase reporter gene assay in BHK cells [1] [nM]","EC50 GlucR, CRE luciferase reporter gene assay in BHK cells [2] [nM]"
H[Aib]QGTFTSDLSKYLDERRAKDFVQWLLSK([γGlu-γGlu-AEEA-AEEA-γGlu-C18 diacid])-NH2 (N-terminus assumed; SMILES CC(C)C[C@H](NC(=O)[C@H](CC(C)C)NC(=O)[C@H](Cc1c[nH]c2ccccc12)NC(=O)[C@H](CCC(N)=O)NC(=O)[C@@H](NC(=O)[C@H](Cc1ccccc1)NC(=O)[C@H](CC(=O)O)NC(=O)[C@H](CCCCN)NC(=O)[C@H](C)NC(=O)[C@H](CCCNC(=N)N)NC(=O)[C@H](CCCNC(=N)N)NC(=O)[C@H](CCC(=O)O)NC(=O)[C@H](CC(=O)O)NC(=O)[C@H](CC(C)C)NC(=O)[C@H](Cc1ccc(O)cc1)NC(=O)[C@H](CCCCN)NC(=O)[C@H](CO)NC(=O)[C@H](CC(C)C)NC(=O)[C@H](CC(=O)O)NC(=O)[C@H](CO)NC(=O)[C@@H](NC(=O)[C@H](Cc1ccccc1)NC(=O)[C@@H](NC(=O)CNC(=O)[C@H](CCC(N)=O)NC(=O)C(C)(C)NC(=O)[C@@H](N)Cc1c[nH]cn1)[C@@H](C)O)[C@@H](C)O)C(C)C)C(=O)N[C@@H](CO)C(=O)N[C@@H](CCCCNC(=O)CC[C@H](NC(=O)CC[C@H](NC(=O)COCCOCCNC(=O)COCCOCCNC(=O)CC[C@H](NC(=O)CCCCCCCCCCCCCCCCC(=O)O)C(=O)O)C(=O)O)C(=O)O)C(N)=O),0.006,1.43
H[Aib]QGTFTSDLSKYLDTRRAQDFVRWLLSK([γGlu-γGlu-AEEA-AEEA-γGlu-C18 diacid])-NH2 (N-terminus assumed; SMILES CC(C)C[C@H](NC(=O)[C@H](CC(C)C)NC(=O)[C@H](Cc1c[nH]c2ccccc12)NC(=O)[C@H](CCCNC(=N)N)NC(=O)[C@@H](NC(=O)[C@H](Cc1ccccc1)NC(=O)[C@H](CC(=O)O)NC(=O)[C@H](CCC(N)=O)NC(=O)[C@H](C)NC(=O)[C@H](CCCNC(=N)N)NC(=O)[C@H](CCCNC(=N)N)NC(=O)[C@@H](NC(=O)[C@H](CC(=O)O)NC(=O)[C@H](CC(C)C)NC(=O)[C@H](Cc1ccc(O)cc1)NC(=O)[C@H](CCCCN)NC(=O)[C@H](CO)NC(=O)[C@H](CC(C)C)NC(=O)[C@H](CC(=O)O)NC(=O)[C@H](CO)NC(=O)[C@@H](NC(=O)[C@H](Cc1ccccc1)NC(=O)[C@@H](NC(=O)CNC(=O)[C@H](CCC(N)=O)NC(=O)C(C)(C)NC(=O)[C@@H](N)Cc1c[nH]cn1)[C@@H](C)O)[C@@H](C)O)[C@@H](C)O)C(C)C)C(=O)N[C@@H](CO)C(=O)N[C@@H](CCCCNC(=O)CC[C@H](NC(=O)CC[C@H](NC(=O)COCCOCCNC(=O)COCCOCCNC(=O)CC[C@H](NC(=O)CCCCCCCCCCCCCCCCC(=O)O)C(=O)O)C(=O)O)C(=O)O)C(N)=O),0.02,0.19
H[Aib]QGTFTSDLSKYLDSRRARK([γGlu-γGlu-AEEA-AEEA-γGlu-C18 diacid])FVQWLLST-NH2 (N-terminus assumed; SMILES CC(C)C[C@H](NC(=O)[C@H](Cc1ccc(O)cc1)NC(=O)[C@H](CCCCN)NC(=O)[C@H](CO)NC(=O)[C@H](CC(C)C)NC(=O)[C@H](CC(=O)O)NC(=O)[C@H](CO)NC(=O)[C@@H](NC(=O)[C@H](Cc1ccccc1)NC(=O)[C@@H](NC(=O)CNC(=O)[C@H](CCC(N)=O)NC(=O)C(C)(C)NC(=O)[C@@H](N)Cc1c[nH]cn1)[C@@H](C)O)[C@@H](C)O)C(=O)N[C@@H](CC(=O)O)C(=O)N[C@@H](CO)C(=O)N[C@@H](CCCNC(=N)N)C(=O)N[C@@H](CCCNC(=N)N)C(=O)N[C@@H](C)C(=O)N[C@@H](CCCNC(=N)N)C(=O)N[C@@H](CCCCNC(=O)CC[C@H](NC(=O)CC[C@H](NC(=O)COCCOCCNC(=O)COCCOCCNC(=O)CC[C@H](NC(=O)CCCCCCCCCCCCCCCCC(=O)O)C(=O)O)C(=O)O)C(=O)O)C(=O)N[C@@H](Cc1ccccc1)C(=O)N[C@H](C(=O)N[C@@H](CCC(N)=O)C(=O)N[C@@H](Cc1c[nH]c2ccccc12)C(=O)N[C@@H](CC(C)C)C(=O)N[C@@H](CC(C)C)C(=O)N[C@@H](CO)C(=O)N[C@H](C(N)=O)[C@@H](C)O)C(C)C),0.044,0.097
H[Aib]QGTFTSDLSKYLDTRRAKDFVQWLLSK([γGlu-γGlu-AEEA-AEEA-γGlu-C18 diacid])-NH2 (N-terminus assumed; SMILES CC(C)C[C@H](NC(=O)[C@H](CC(C)C)NC(=O)[C@H](Cc1c[nH]c2ccccc12)NC(=O)[C@H](CCC(N)=O)NC(=O)[C@@H](NC(=O)[C@H](Cc1ccccc1)NC(=O)[C@H](CC(=O)O)NC(=O)[C@H](CCCCN)NC(=O)[C@H](C)NC(=O)[C@H](CCCNC(=N)N)NC(=O)[C@H](CCCNC(=N)N)NC(=O)[C@@H](NC(=O)[C@H](CC(=O)O)NC(=O)[C@H](CC(C)C)NC(=O)[C@H](Cc1ccc(O)cc1)NC(=O)[C@H](CCCCN)NC(=O)[C@H](CO)NC(=O)[C@H](CC(C)C)NC(=O)[C@H](CC(=O)O)NC(=O)[C@H](CO)NC(=O)[C@@H](NC(=O)[C@H](Cc1ccccc1)NC(=O)[C@@H](NC(=O)CNC(=O)[C@H](CCC(N)=O)NC(=O)C(C)(C)NC(=O)[C@@H](N)Cc1c[nH]cn1)[C@@H](C)O)[C@@H](C)O)[C@@H](C)O)C(C)C)C(=O)N[C@@H](CO)C(=O)N[C@@H](CCCCNC(=O)CC[C@H](NC(=O)CC[C@H](NC(=O)COCCOCCNC(=O)COCCOCCNC(=O)CC[C@H](NC(=O)CCCCCCCCCCCCCCCCC(=O)O)C(=O)O)C(=O)O)C(=O)O)C(N)=O),0.015,0.672
H[Aib]QGTFTSDLSKYLDKRRAEDFVQWLLSK([γGlu-γGlu-AEEA-AEEA-γGlu-C18 diacid])-NH2 (N-terminus assumed; SMILES CC(C)C[C@H](NC(=O)[C@H](CC(C)C)NC(=O)[C@H](Cc1c[nH]c2ccccc12)NC(=O)[C@H](CCC(N)=O)NC(=O)[C@@H](NC(=O)[C@H](Cc1ccccc1)NC(=O)[C@H](CC(=O)O)NC(=O)[C@H](CCC(=O)O)NC(=O)[C@H](C)NC(=O)[C@H](CCCNC(=N)N)NC(=O)[C@H](CCCNC(=N)N)NC(=O)[C@H](CCCCN)NC(=O)[C@H](CC(=O)O)NC(=O)[C@H](CC(C)C)NC(=O)[C@H](Cc1ccc(O)cc1)NC(=O)[C@H](CCCCN)NC(=O)[C@H](CO)NC(=O)[C@H](CC(C)C)NC(=O)[C@H](CC(=O)O)NC(=O)[C@H](CO)NC(=O)[C@@H](NC(=O)[C@H](Cc1ccccc1)NC(=O)[C@@H](NC(=O)CNC(=O)[C@H](CCC(N)=O)NC(=O)C(C)(C)NC(=O)[C@@H](N)Cc1c[nH]cn1)[C@@H](C)O)[C@@H](C)O)C(C)C)C(=O)N[C@@H](CO)C(=O)N[C@@H](CCCCNC(=O)CC[C@H](NC(=O)CC[C@H](NC(=O)COCCOCCNC(=O)COCCOCCNC(=O)CC[C@H](NC(=O)CCCCCCCCCCCCCCCCC(=O)O)C(=O)O)C(=O)O)C(=O)O)C(N)=O),0.028,0.599

# — patent US20150374794A1 (Novo Nordisk, published 2015)
